Tests used:
Conditions in all cases: both partners purified
His6-Ran = biological target: T1, His6-Ran (yeast (S. cerevisiae), UniProt P32835 1-219); assay: pull-down; GST fusion immobilised on GSH-Sepharose, incubated with 2 µM His6-Ran loaded with GTP, 1 hr at 4°C
T1 construct: Gsp1 (yeast Ran), wild type; loaded with GTP or with GDP before the assay; the two loadings are two assays; also called His6-Gsp1 (Ran) WT; RanGTP; not shown: His6, N-terminal, kept

His6-Ran^QLGTP [1] = biological target: T2, His6-Ran^QLGTP (yeast (S. cerevisiae), UniProt P32835 1-219, Gsp1Q71L); assay: pull-down; GST fusion immobilised on GSH-Sepharose in PBSKMT, incubated with one purified protein (2 µM His6-Ran variant, or 0.5 µM Slx9 or Slx9-1) for 1 hr at 4°C, competing E. coli lysates present; Coomassie or Western
T2 construct: Gsp1 (yeast Ran), GTP-stabilized mutant Q71L, equivalent to human RanQ69L; also called Gsp1Q71L; RanGTP; not shown: His6, N-terminal, kept

Crm1-His6 = Crm1-His6 (yeast (S. cerevisiae), UniProt P30822 1-1084); assay: pull-down; trimeric export complex formation: GST fusion immobilised on GSH-Sepharose, incubated with 2 µM His6-Ran^QLGTP and 50 nM Crm1-His6 together; competing E. coli lysates present; Coomassie or Western
His6-Ran^QLGTP [2] = biological target: T2, His6-Ran^QLGTP; assay: as above

| Binder | binding result (His6-Ran) | binding result (His6-Ran^QLGTP [1]) | binding result (Crm1-His6) | binding result (His6-Ran^QLGTP [2]) |
| --- | --- | --- | --- | --- |
| GST-Slx9 (natural protein, yeast (S. cerevisiae), UniProt P53251 1-210, looked up) MVAKKRNTLRSKVSARNSQNFGPDVANNGILDESYDIESDPRAFLHQPKETKKEKLLNRQNTFLSNLKGKSTLNDGIAANFDGISKSSIRRRKRKLREELKPRMQDLLTSLEQEKDLRGIIENSSKDMNNDDDIDMDSKIRFVDTKEMNLKKIEPGSVRIKKNQPNIRNQKGAKALAANETARFNQVLTNQDFQKNPFGALREVIKLQKQ | binds | binds |  |  |
| GST-Ssb1C (domain or fragment, yeast (S. cerevisiae), UniProt P11484 524-613, looked up) NQAEEFKAADEAFAKKHEARQRLESYVASIEQTVTDPVLSSKLKRGSKSKIEAALSDALAALQIEDPSADELRKAEVGLKRVVTKAMSSR |  |  | binds | binds |
